Measured values published in article PMC7907143, “SPARC coordinates extracellular matrix remodeling and efficient recruitment to and migration of antigen-specific T cells in the brain following infection” (Scientific Reports, 2021).

Experiments:
[1] = molecular target: Secreted Protein, Acidic, Rich in Cysteine (SPARC), recombinant murine (murine) (UniProt P07214); experiment: MST; Monolith NT.115; 4.5 nM NT-495-labelled SPARC, unlabelled chemokine titrated; Ca-MST buffer (50 mM Tris pH 7.4, 150 mM NaCl, 2 mM CaCl2, 0.05% Tween 20); room temperature; three measurements; thermophoresis plus t-jump
CXCL10 = CXCL10 (UniProt P02778); conditions: cited from earlier work
[2] = molecular target: T1, Secreted Protein, Acidic, Rich in Cysteine (SPARC), recombinant murine (murine, UniProt P07214 18-302, fluorescent label NT-495, covalently linked by NHS coupling (in the thermophoresis only; unlabelled in the gel filtration)); experiment: MST; Monolith NT.115; 4.5 nM NT-495-labelled SPARC, unlabelled chemokine titrated; Ca-MST buffer (50 mM Tris pH 7.4, 150 mM NaCl, 2 mM CaCl2, 0.05% Tween 20); room temperature; three measurements; thermophoresis plus t-jump; conditions: both partners purified
T1 construct: SPARC, mouse, recombinant; most likely the mature secreted protein; also called recombinant SPARC; source: bought: R&D Systems or Peprotech (recombinant murine)
T1 sequence (looked up): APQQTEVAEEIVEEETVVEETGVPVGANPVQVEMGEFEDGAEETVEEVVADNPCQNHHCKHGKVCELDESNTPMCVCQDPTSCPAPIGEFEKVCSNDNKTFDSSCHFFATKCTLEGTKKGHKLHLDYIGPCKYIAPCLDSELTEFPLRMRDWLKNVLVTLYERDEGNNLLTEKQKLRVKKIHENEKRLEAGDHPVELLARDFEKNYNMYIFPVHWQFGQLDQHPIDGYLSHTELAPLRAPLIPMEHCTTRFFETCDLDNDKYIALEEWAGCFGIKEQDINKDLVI

“CCL21, recombinant murine (from UniProt P84444 24-133) (ligand)” showed a Kd [1] of 984 nM.

In the case of CXCL10 (from UniProt P02778), the Kd (CXCL10) is given as 9000 nM.

B1: CCL19, recombinant murine (ligand, UniProt O70460 26-108, looked up)
chain: GANDAEDCCLSVTQRPIPGNIVKAFRYLLNEDGCRVPAVVFTTLRGYQLCAPPDQPWVDRIIRRLKKSSAKNKGNSTRRSPVS
notes: CCL19, mouse, recombinant; Most likely the mature chemokine without its signal peptide; source: bought: R&D Systems or Peprotech (recombinant murine)
B1 gave a Kd [2] of 1.9 nM.
